Source: the domain aggregation screens of Martell et al. (2025)

Assay: soluble fraction after stress (log2 fold change); higher = more stays soluble; pooled small domains, quantitative proteomics
Details: stress: pH 4
How it was run: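 Following acid stress at pH 4, the amount of each small protein domain still soluble was measured in pooled custom libraries by high-throughput quantitative proteomics. Its fold change, on a log2 scale, is higher when more of the domain stayed soluble. This fold change is taken as a measure of aggregation propensity.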

Sequence | soluble fraction (log2)
HMIPSLTITVNEHSRQITRGTSLYTLRDALYPDADVLVVNGHPADSDRHLEEGDAVVLIRRGA | -0.394
HMSTTHLTASVIKDKVNVRSEADSQNGAIIDKARTGERLLVTDYGNKWTGIVLPDGKRGYIMTEYLQF | 0.22
HMSSDEDELESIIKRVFADNPIELERLQNGEDKLIKFFMGLVMRQTKGKYPPKIIIDLLNKS | -1.54
HMVKSYEVPDVSNLTVLEAEAKLQEMGFEIDEEQKEISSSDIESGRVVKTSPQAGSKRKEGAIITLYVSSG | -0.433
HMVLLGAAIRELRIQKGITIEELAEMSGLSTGLISKIERDLGNPSISSLRKISRALGVPTAFFFA | -0.744
HMSDPSRKADFIAALSSLGGSAGNGKLREQLGWDEPTYDAVKQTLLDEGAITNGRGRGGSVALAG | 0.146
HMSEEQLKAFLEKVQGDTSLQEKLKAAADANAVVEIAKEAGFSISADDLKNAQSELSEEELE | -0.257
HMGGAVQIAEQIAARIKDGALRPGELLPPVRQLAAELEVNPNTVASAYARLRDAGLVATRGRAGTVVLEPP | -0.246
HMASVLTAKLSEREVDVLNLLARGFTNADIAAQLHLSEGTVRNHVSTIFAKLDVNDRTQAAVIAIRHGL | -0.176
HMSTKEFTIHAGEWSYRVSQKLENLGLVSDAKKFDQYLEDNGYSSKIKIGHYTISKDADFEEIAKEIT | 0.0658
HMAKMPSIIIMKDGVIRTSELEQIERDENWLNEEMKKQHIDNPEDVFLAEFWDGKVNFILQDGKIK | -0.78
HMINYSQKQLIAIQDELSKRFQALENESTKNNVTGFGVGLHYIDIDLIVNTPEKQKEFREKIMDSPAFRFN | 0.106
HMATEYIIPTVTNKKLEEAIGIAQLRGFEISVDEYKPSDIDEGTVLEQSPAAGTNAKQGDTISVTVSSG | -0.103
HMGVRPAALGFQKVRIEPQVGTFREASGDVITPRGLIHAEWKRDEENALHLHYTLPDGVAYA | -0.109
HMLRDMIIQSYRYYTDKERNPRQVWNRMEADAFWEIIRDYEGYNGDGYVHTKIIPEMEALTVIEMDN | -1.62
HMHKFMEQNQDRRLSRMKELIGILSEAAKTYYQESREIMSNFQYDRMYDELLELEKETGVVMAGSPTQKV | -0.98
HMLPKAERREQLMAVARSVFAEQGYHTTSMEIIAETAGVSKPLLYQHFPSKLDLYLALLDAGID | -1.1
HMRLDSELVSARLHRFMGTNRKPDGEIVEKIAAILEGHPIETLDAFLQSLNGRKIKSYGFFPTVLRREIAN | -0.114
HMDLPSSETLKVKLNLAKAYVTIEDFGAARRALDEVLSVSSLVDPDLTIQAKSLLAEIDQRS | -0.0976
HMSAQDLIVKTDATQVEARVLEISPEQIRYKRFSNPDGPTYVLPVDAVDYIRYANGETDSFR | -0.446
HMIDYIKYTVDGKTYELINNWDGTWSRELEAPLVAGRYDLLLEISQNGLVTYIDSSDPRYEFYLDVI | -2.3
HMTTLTPIGKMKGEIDGDFEAFYLAVDKDGQVYLNRDPDYSENRYEKSRGWELVTREQLAVYEKELHFIP | -0.25
HMRRISLEDWQLIESLIRRDWSPEQISLWLKKYKKIRVSHEWIYQYILKDKSKAGDLHTHLRSR | -0.419
HMIDLPEAFIQQLKEAVDVGDVTGLRELLGQLRRRYPQQSALSDEAERLLREFDFERLAQLFEGLD | -1.54
HMNTPNYDVLYRGLADADAGQIMEALQKSNIPFKVDSHSGVLLVPADQVHEARLKLASQGLPRG | 0.00323
HMLLFSVADIVKRSKRILSFKTDAELAAYFGVSRSTLSNWIARNSIDFPLLLSKMKDVDYTWLILGKGTPG | -0.207

Sequence | soluble fraction (log2)
HMITTLLVENLQDVGMRLDHYLVYNLIKYSRSHIQSFIRSGDIRVNGKKVKTGYSLELKDLIHIEMP | -1.1
HMQSQIAQLYNPLLGYVKKRINSREDAEDLTQDIFLKLSKSNKDGVDNLKSWLYTIAKNTITDYYRKKKII | -0.0414
HMGTTLTKIPGIGENRARLLLRHFGSLRAVREADADALAAVKGMTRPAAEAIVRYFEQQDAEGRRD | 0.336
HMEETLRELAVKISKQVIKTGRNSVLEPMNPYERRIIHAVISEIEGVSSKSVGEDPNRKVVIMSTNP | -1.07
HMNPIDAHVGARVRLRRMLIGMSQEKLGELLGVTFQQIQKYEKGANRIGASRLYEVSRVLDVPVQYFFDDM | -0.436
HMDDPQAELLARAVRRVALAAAERTRRNEYGGVYLGLFRQFGISSYRRTPPARLHEALEWLERWRGDLM | -0.378
HMRSSALDEIPGIGKQRKKNLLVHFTSVAKIKEASLDEIAAVPGMNRKAALVVVEFFQNQERE | 0.158
HMVTLQEVKQYLRIDFEEEDPLLLSLLATAKQQVMNVGRMDEAQLSEHEDTARTAILYAVSYLYENRN | -1.63
HMTTPDIIVPDVKGMTVAEAQKALEEKGFKVKLEEMTQEGAVPGDVIRIDPVAGTKRKEGAKITLLIARG | -0.0525
HMGSPVTAVMNRVLNETERQIVTLHVISGFKHREIAELLEKPVGTVLWTYNNALGKMRKAMQRE | -0.603
HMEGEVVESPLVGVAYLASGPDKPAFVQVGDSVSKGQTLLIIEAMKVMNEVPAPRDGIVTEILV | -0.279
HMKQEFEMGLPNGVGEQMLAHAIEKFDVKLEHSEFGPKLIGTYEELEKAKVFLYEAIEARLNQLE | -0.875
HMIVSEYIIIGGDKKEYGPVSMGEVGEWVQGGRANGDSKIKKVGTEEWGRLRDFPEFSAYLS | -0.309
HMNTPALRQRTQDVPALLIHFAKYFATKGQTPISFAPDFLEALKDYPWPGNVRELRNLVESMVV | -0.0956
HMNPLHYKAAHWVREGLFDDLKSFVELETRINSIFEEKDRGDVFEIFIEGYRSFSKWRALVLRLA | -0.44
HMITGSIQPKNGKYYAVLNLYDHTGKRRPKWVSTGYTVKGNKKKAQEVLNELTRRYSAQLPPSK | 0.22
HMTDIDATSIERAVAKRRHFFLSNIQDLTMKMARRLIEKDLGLAPKHLDAAPFKTRITELVDAVIALGD | -0.484
HMSGPAEDLLAIEGMDKELAYELAARGIRTRDELADQSLDELEAVPGLDPVRAGQLIMAARAHLFENAGQ | -0.355
HMEFLDLEIDVDATDGRLLAFLAAKGEVVSQTFNDTIITVRVRMPTGAMGQVHRSALAIRPA | -1.43
HMDEQLAWLYRKINAFSEIDKALILLYLEDKKYDEIAETLGISSVNARVKMNRIKKRLKEMINDR | -1.02
HMAPPPLAGAREALREQIRRGSLSARRGFDAYADALGLPAGTRGAHPIFAALQRLDYPQALRLLDQEPT | -0.108
HMDPPVDLTPREQQVLSRIALGMSDKAIAAELGVSHQTVRNHVARIYAKIKVHSRSQAIVWAREKGIP | -0.109
HMVLTSFHDNFPKTGTTYTVRSGDTISGIATKFGSTRDWIQNANEISHPKYLQVGRTLFIPH | 0.22
HMPNIHVVFAEEWTDRRLDKVLSEYFDGYSRSFIKKLFDDGLILVNSKAVKPSYKVRAGDMIDISVPDPV | -0.465
HMAQTSAELIIEYLKRNDGFMELTDKSPADEIYETFGISKKNFKMAVGSLYKNRVIEIGQNGIRLVE | -0.0445
HMRTMRHLSVPRQETQQILSQLKAEFALPQGARVQPDPSDSKRTLIPVKEGAESELLSRYPVVHAEP | 0.11

Sequence | soluble fraction (log2)
HMIPDLPAVGVNVHKERRRQQLSLDALAAGSGVSKAMLSQIESGKVNPTVATMWKIAHALGVDFELLLKGE | -0.00451
HMRKMELTEAAEKLIEEPDVVSAYRNMQQIFQQWREIGPVPREQRDEVWSHFKDLMTQVNRRHQAHFEN | -0.258
HMHSPLLDRYLAEVGWRLRHLSGAQREDILAGLREHIADLESAGVAPEEIVARLGSPESVADAAAGEF | 0.0489
HMNEFNEVVPDSLEGERLDRLLAFIGNISRSEASNIIKGGEVLINGKVVTRPSFKVTLGNRVEFSIRD | -0.19
HMESMIGSLRGRLLELFGDGEVLIEVGGVGYRVIVTPTTTVRLGDVGGDVFVHVHHHIREADQTLYGF | -0.722
HMTTVKDRVYEILKREIVLGKLKPGEPINIAVLSTKLNISSAPLREALNMLSRDGLVTLNPRKHAAVSE | -0.0431
HMALPEHIEPFLRGLGQALAEGDSYEDVQERLLRAYPYLDSTEFQTALARVIFISDLWGRLN | -1.02
HMRKEPSYASDIITRLKEADLIVVEGTLYPLLTRLKKDGLLSYEWRESTQGPPRKYYALTLDGET | -0.895
HMAAEELTVDKILTAQSFGVTAEAILAKVNDPANTVATLTQADVDRLRAAGVPEGVVTALQARAPQ | -0.155
HMLSPPWYEYHRKVQAMFGRDPEVHIKDLDDLGDGKFSYMILVYNKEKAEAIKAILPQKVEMGNVTIETAI | ≥ 0.43
HMSKQQFLDELAARLREEGAELLVAENLNFYRSYIEEEVAKGRSEEEVLAELGNPALIARSILDAAGF | -1.15
HMSLYGGYEIDIIKEEVVDAGIKLLRRRVIVADQRGISVYEGKPTFASDDQVLIKEGQYQIDKLG | -1.46
HMVPISGADFEKLSDYILQKAGAGSIQVKELLAGLKGMHEKNLWKAIDYLLAEEKIRIDKGGNISVK | -0.249
HMEKIIGQIQINQRGNGYVIVPNVKDDIFVKRENLNSARQGDRVAVQLLSRPNQKPEGLVQEVLERGQ | 0.071
HMVPHQPRVWTNTAGKTITAAFVRFNAAGRKVSLKLEKGRQVELPLASLSGNDVDWIKEHVPEAMSNQE | -0.00313
HMYPDNEQTLSKLAFEFFKKRNIPISQSNINQIVTKSLGDRENLYNELLKIENFSTSGKKLTDNVIKKLIN | 0.176
HMEAEDLRDWVGARGIAYTALRPAGIAVVNGRRVDVVSEGAFVNRDDPVEVVRVEGRRIVVKP | -0.106
HMETKERDEQFLEMIRQNEGIIFKVASFYVDKEHPIGDLYQEVVLNLWKGYPSFRGESKYSTWIYRIALNT | -0.504
HMLHSEDATVVRQAIPLLERHVDAATVAVARRNLAQLEQFGRYPRRNQALGRISNPAENAYLRAER | -0.0503
HMEDPVAQEARAAFEVGRLLAAATGPVTLAAIRRAIDLPEERLEEILRRLEESGAVRRARDGWLPG | -0.269
HMSFTSQSVLIEIVRGTTQLTPLAAAVGANKREVVLAVHRLKQRGLVVSAGLGQYAATEAGRAFLTAGREV | ≥ 0.43
HMQLDLTSTLDHMYKQMRNDHPRALLMAVEKEMVLRALKETDGNQLRASDILGISRSTLRKRIEEFDINS | -0.257
HMVNHEERKRLIAEATWRTISHVGIEQASVRTIAKEAGLSLGALRYYFTTQEELLRFSMQLVQERV | 0.0598
HMGYNDQEVKSNLITLLSTSKTGLSGVEISAQLGINRVTMTKFLNVFAAEGIIKQKNIGNLNLWLVEEGTE | -0.05
